Measurements taken from doi:10.1101/2020.11.13.381350 (bioRxiv, 2020).
“And” between values parts separate entries of the source, which are not always exact repeats. Equal values may be shown once.

Molecular target: the molecule itself
Experiment: cross-linking

B1: 6xHis-WT-mVP40 (Marburg virus matrix protein VP40, wild type) (natural protein)
chain: MASSSNYNTYMQYLNPPPYADHGANQLIPADQLSNQQGITPNYVGDLNLDDQFKGNVCHAFTLEAIIDISAYNERTVKGVPAWLPLGIMSNFEYPLAHTVAALLTGSYTITQFTHNGQKFVRVNRLGTGIPAHPLRMLREGNQAFIQNMVIPRNFSTNQFTYNLTNLVLSVQKLPDDAWRPSKDKLIGNTMHPAVSIHPNLPPIVLPTVKKQAYRQHKNPNNGPLLAISGILHQLRVEKVPEKTSLFRISLPADMFSVKEGMMKKRGENSPVVYFQAPENFPLNGFNNRQVVLAYANPTLSAV
In the case of B1, the “stoichiometry N” value is reported as 6 and 4.
